Starred links: 1 amine or outer side, 2 acyl side, 3 side chain; linkers in the order of their positions; H or OH if unused. Non-standard residues stand in square brackets, D forms with d. Groups on a side chain read outwards from the residue. No end group written: not given here. *: point of attachment. C20 diacid = O=C(O)CCCCCCCCCCCCCCCCCCC(=O)*; C18 diacid = O=C(O)CCCCCCCCCCCCCCCCC(=O)*; γGlu = O=C(O)[C@H](CCC(=O)[*:2])N[*:1]; εLys = N[C@@H](CCCCN[*:1])C(=O)[*:2]; AEEA = NCCOCCOCC(=O)O; Aib = CC(C)(N)C(=O)O
B1: Compound 76 (peptide)
peptide: YXEGTFTSDYSIXLEKQAQXAFVEWLIKGGPSSGASXRHYXNWLTRQRY
modifications: Aib at 2, 13, 20, 37, 41; K28 side chain: C20DA-gGlu-gGlu-Glu-gGlu-gGlu-gGlu-eLys; C-terminal NH2
B2: Compound 80 (peptide)
peptide: YXEGTFTSDYSIXLEKQAQXAFVEWLIKGGPSYYVSLRHYYNWLTRQRY
modifications: Aib at 2, 13, 20; K28 side chain: C20DA-gGlu-gGlu-gGlu-gGlu-gGlu-gGlu-eLys; C-terminal NH2
B3: Compound 87 (peptide)
peptide: YXDGTFTSDYSIXLEKQAQXAFVEWLIKGGPSSGASLRHYYNWLTRQRY
modifications: Aib at 2, 13, 20; K28 side chain: C20DA-gGlu-gGlu-gGlu-gGlu-gGlu-gGlu-eLys; C-terminal NH2
B4: Compound 78 (peptide)
peptide: YXEGTFTSDYSIXLEKQAQXAFVQWLIKGGPSEYVSLRHYYNWLTRQRY
modifications: Aib at 2, 13, 20; K28 side chain: C20DA-gGlu-gGlu-gGlu-gGlu-gGlu-gGlu-eLys; C-terminal NH2
B5: Compound 86 (peptide)
peptide: YXEGTFTSDYSIXLEKQAQXAFVEWLIKGGPSSGASLRHYLNWLTRQRY
modifications: Aib at 2, 13, 20; K28 side chain: C20DA-gGlu-gGlu-gGlu-gGlu-gGlu-gGlu-eLys; C-terminal NH2
B6: Compound 10 (peptide)
peptide: YXEGTFTSDYSIXLEKQAQXAFVEWLIKGGPSSPESXRHYYNWLTRQRY
modifications: Aib at 2, 13, 20, 37; K28 side chain: C20DA-gGlu-gGlu-gGlu-gGlu-gGlu-gGlu-eK; C-terminal NH2
B7: Compound 85 (peptide)
peptide: YXEGTFTSDYSIXLEKQAQXAFVEWLIKGGPSSGASLRHYYNWLTRQRY
modifications: Aib at 2, 13, 20; NMeQ 47; K28 side chain: C20DA-gGlu-gGlu-gGlu-gGlu-gGlu-gGlu-eLys; C-terminal NH2
B8: Compound 11 (peptide)
peptide: YXEGTFTSDYSIXLEKQAQXAFVQWLIKGGPESPASLRHYYNWLTRQRY
modifications: Aib at 2, 13, 20; K28 side chain: C20DA-gGlu-gGlu-gGlu-gGlu-gGlu; C-terminal NH2
B9: Compound 79 (peptide)
peptide: YXEGTFTSDYSIXLEKQAQXAFVEWLIKGGPSSGASLRHYYNLXTRQRY
modifications: Aib at 2, 13, 20, 44; K28 side chain: C20DA-gGlu-gGlu-gGlu-gGlu-gGlu-gGlu-eLys; C-terminal NH2
B10: Compound 84 (peptide)
peptide: YXEGTFTSDYSIXLEKQAQXAFVEWLIKGGPSSGQSLRHYYNWLTRQRY
modifications: Aib at 2, 13, 20; K28 side chain: C20DA-gGlu-gGlu-gGlu-gGlu-gGlu-gGlu-eLys; C-terminal NH2
B11: Compound 83 (peptide)
peptide: YXEGTFTSDYSIXLEKQAQXAFVEWLIKGGPSSGASLRHYYNWLTRQRY
modifications: Aib at 2, 13, 20; NMeR 48; K28 side chain: C20DA-gGlu-gGlu-gGlu-gGlu-gGlu-gGlu-eLys; C-terminal NH2
B12: Compound 9 (peptide)
peptide: YXEGTFTSDYSIXLEKQAQXAFVEWLIKGGPSSYVSIRHYYNWLTRQRY
modifications: Aib at 2, 13, 20; K28 side chain: C20DA-gGlu-gGlu-gGlu-gGlu-gGlu-gGlu-eLys; C-terminal NH2

Columns and labels:
Experiment in all cases: cell-based or functional assay
[1] = target: T1, human neuropeptide Y2 (NPY2) receptor (human, UniProt P49146 1-381)
T1 sequence (looked up): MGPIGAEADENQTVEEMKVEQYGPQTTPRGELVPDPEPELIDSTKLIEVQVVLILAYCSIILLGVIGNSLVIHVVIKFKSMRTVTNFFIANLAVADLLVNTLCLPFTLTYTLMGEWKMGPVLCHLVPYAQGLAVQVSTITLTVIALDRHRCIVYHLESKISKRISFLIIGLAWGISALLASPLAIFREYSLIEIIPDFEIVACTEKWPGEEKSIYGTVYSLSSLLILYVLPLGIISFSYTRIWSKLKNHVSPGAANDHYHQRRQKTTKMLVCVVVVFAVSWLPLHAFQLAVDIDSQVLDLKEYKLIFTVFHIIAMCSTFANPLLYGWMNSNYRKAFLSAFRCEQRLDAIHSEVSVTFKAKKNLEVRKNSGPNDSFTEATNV

human GLP-1 receptor = human GLP-1 receptor (human, UniProt P43220 24-463)
human GIP receptor = target: T2, human GIP receptor (human, UniProt P48546 22-466)
T2 sequence (looked up): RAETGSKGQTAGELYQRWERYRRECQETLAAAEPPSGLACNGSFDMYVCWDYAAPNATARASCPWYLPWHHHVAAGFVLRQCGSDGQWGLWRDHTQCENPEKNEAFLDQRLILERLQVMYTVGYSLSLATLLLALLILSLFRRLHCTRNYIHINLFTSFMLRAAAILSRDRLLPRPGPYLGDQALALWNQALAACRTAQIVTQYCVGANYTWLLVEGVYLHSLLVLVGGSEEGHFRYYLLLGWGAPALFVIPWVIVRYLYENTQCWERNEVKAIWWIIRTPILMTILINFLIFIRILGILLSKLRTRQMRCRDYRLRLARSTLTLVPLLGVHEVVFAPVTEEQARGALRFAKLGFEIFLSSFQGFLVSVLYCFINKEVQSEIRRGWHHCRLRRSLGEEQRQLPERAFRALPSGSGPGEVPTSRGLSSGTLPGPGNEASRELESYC

Row | Binder | EC50, CreLuc assay, 0.5% hP [1] | EC50, CreLuc assay, 100% hP [1] | EC50, CreLuc assay, 0.5% hP (human GLP-1 receptor) | EC50, CreLuc assay, 100% hP (human GLP-1 receptor) | EC50, CreLuc assay, 0.5% hP (human GIP receptor) | EC50, CreLuc assay, 100% hP (human GIP receptor)
1 | Y[Aib]EGTFTSDYSI[Aib]LEKQAQ[Aib]EFVEWLIK([AEEA-AEEA-γGlu-γGlu-γGlu-C18 diacid])GGPESGASLRHYYNWLTRQRY-NH2 (also: TFA salt) [Compound 81] | 11.1 nM | 36.4 nM | 0.6 nM | 15.4 nM | 0.27 nM | 1.79 nM
2 | Y[Aib]EGTFTSDYSI[Aib]LEKQAQ[Aib]AFVQWLIK([AEEA-AEEA-γGlu-γGlu-γGlu-γGlu-C20 diacid])GGPEEPASLRHYYNWLTRQRY-NH2 (also: TFA salt) [Compound 77] | 13.7 nM | 46.3 nM | 0.24 nM | 16.2 nM | 0.32 nM | 2.16 nM
3 | B1 | 31.5 nM | 158 nM | 0.1 nM | 1.91 nM | 0.2 nM | 1.39 nM
4 | B2 | 12.8 nM | 54.8 nM | 1.6 nM | 16.3 nM | 0.79 nM | 6.76 nM
5 | B3 | 20.7 nM | 73.4 nM | 0.08 nM | 2 nM | 0.58 nM | 5.65 nM
6 | B4 | 12.9 nM | 24.6 nM | 0.64 nM | 12.2 nM | 0.53 nM | 6.64 nM
7 | B5 | 23.7 nM | 53.1 nM | 0.25 nM | 2.47 nM | 0.48 nM | 1.61 nM
8 | B6 | 18.2 nM | 42.2 nM | 0.11 nM | 2.59 nM | 0.07 nM | 1.25 nM
9 | B7 | 10.3 nM | 34.4 nM | 0.15 nM | 2.75 nM | 0.22 nM | 1.11 nM
10 | B8 | 10.3 nM | 51.5 nM | 0.11 nM | 6.69 nM | 0.17 nM | 2.54 nM
11 | B9 | 87.6 nM | 265 nM | 0.11 nM | 2.09 nM | 0.29 nM | 1.86 nM
12 | B10 | 8.31 nM | 35.2 nM | 0.13 nM | 2.63 nM | 0.23 nM | 1.43 nM
13 | B11 | 28.8 nM | 80.6 nM | 0.17 nM | 2.87 nM | 0.13 nM | 1.06 nM
14 | B12 | 15.2 nM | 18.9 nM | 0.46 nM | 6.64 nM | 0.21 nM | 2.03 nM
15 | Y[Aib]EGTFTSDYSI[Aib]LEKQAQ[Aib]AFVEWLIK([εLys-Glu-γGlu-γGlu-γGlu-γGlu-C20 diacid])GGPSYYVSLRHYYNWLTRQRY-NH2 (also: TFA salt) [Compound 75] | 7.12 nM | 33.5 nM | 0.35 nM | 23.9 nM | 0.54 nM | 12.4 nM

Reference: patent publication US20240247080A1, “GLP1/GIP/NPY2 RECEPTOR TRIPLE AGONISTS” (Boehringer Ingelheim International GmbH, priority 2022, published 2024)
